In paper PMC10657434, “Architecture of the baculovirus nucleocapsid revealed by cryo-EM” (Nature Communications, 2023):

B1: major capsid protein VP39 (natural protein)
chain: MALVPVGMAPRQMRVNRCIFASIVSFDACITYKSPCSPDAYHDDGWFICNNHLIKRFKMSKMVLPIFDEDDNQFKMTIARHLVGNKERGIKRILIPSATNYQDVFNLNSMMQAEQLIFHLIYNNENAVNTICDNLKYTEGFTSNTQRVIHSVYATTKSILDTTNPNTFCSRVSRDELRFFDVTNARALRGGAGDQLFNNYSGFLQNLIRRAVAPEYLQIDTEELRFRNCATCIIDETGLVASVPDGPELYNPIRSSDIMRSQPNRLQIRNVLKFEGDTRELDRTLSGYEEYPTYVPLFLGYQIINSENNFLRNDFIPRANPNATLGGGAVAGPAPGVAGEAGGGIAV
notes: major capsid protein VP39 of Autographa californica multiple nucleopolyhedrovirus (AcMNPV), as present in the native nucleocapsid; regions described in the model run from Arg14 to Asn320; Native virion protein; forms disulfide-linked dimers arranged as a 14-start helical cylinder; also called VP39A; VP39B; source: AcMNPV ODV nucleocapsids from occlusion bodies of infected Spodoptera exigua …
B2: AC101 (BV/ODV-C42) (natural protein)
chain: MSAIALYLEINKLRLKIDEPMQLAIWPQLFPLLCDEHQSVQLNTDVLINFMMHVARKSQNTILNNNAAIASQYAAGNADVVAAPASAQPTPRPVINLFARANAAAPAQPSEELINMRRYRNAARKLIHHYSLNSTSSTEYKISDVVMTMIFLLRSEKYHSLFKLLETTFDDYTCRPQMTQVQTDTLLDAVRSLLEMPSTTIDLTTVDIMRSSFARCFNSPIMRYAKIVLLQNVALQRDKRTTLEELLIERGEKIQMLQPQQYINSGTEIPFCDDAEFLNRLLKHIDPYPLSRMYYNAANTMFYTTMENYAVSNCKFNIEDYNNIFKVMENIRKHSNKNSNDQDELNIYLGVQSSNAKRKKY
notes: AC101 (BV/ODV-C42) of AcMNPV, as present in the native nucleocapsid; ~110 N-terminal and ~30 C-terminal residues are not resolved; modelled parts include Glu112-Asn218, Ser219-Thr241 and Leu243-His334; also called BV/ODV-42; AC101-1; source: AcMNPV ODV nucleocapsids from occlusion bodies of infected Spodoptera exigua larvae; alkaline lysis, centrifugation
B3: AC104 (VP80) (natural protein)
chain: MNDSNSLLITRLAAQILSRNMQTVDVIVDDKTLSLEEKIDTLTSMVLAVNSPPQSPPRVTSSDLAASIIKNNSKMVGNDFEMRYNVLRMAVVFVKHYPKYYNETTAGLVAEIESNLLQYQNYVNQGNYQNIEGYDSLLNKAEECYVKIDRLFKESIKKIMDDTEAFEREQEAERLRAEQTAANALLERRAQTSADDVVNRADANIPTAFSDPLPGPSAPRYMYESSESDTYMETARRTAEHYTDQDKDYNAAYTADEYNSLVKTVLLRLIEKALATLKNRLHITTIDQLKKFRDYLNSDADAGEFQIFLNQEDCVILKNLSNLASKFFNVRCVADTLEVMLEALRNNIELVQPESDAVRRIVIKMTQEIKDSSTPLYNIAMYKSDYDAIKNKNIKTLFDLYNDRLPINFLDTSATSPVRKTSGKRSAEDDLLPTRSSKRANRPEINVISSEDEQEDDDVEDVDYEKESKRRKLEDEDFLKLKALEFSKDIVNEKLQKIIVVTDGMKRLYEYCNCKNSLETLPSAANYGSLLKRLNLYNLDHIEMNVNFYELLFPLTLYNDNDNSDKTLSHQLVNYIFLASNYFQNCAKNFNYMRETFNVFGPFKQIDFMVMFVIKFNFLCDMRNFAKLIDELVPNKQPNMRIHSVLVMRDKIVKLAFSNLQFQTFSKKDKSRNTKHLQRLIMLMNANYNVI
notes: AC104 (VP80) of AcMNPV, as present in the native nucleocapsid; only Ile490-Thr664 and Asn673-Asn685 (AC104-1, AC104-2) and Asp463-Ile691 (AC104-3) are resolved and modelled; also called AC104-1; AC104-2; source: AcMNPV ODV nucleocapsids from occlusion bodies of infected Spodoptera exigua larvae; alkaline lysis, centrifugation
B4: polyhedrin (natural protein)
chain: MPDYSYRPTIGRTYVYDNKYYKNLGAVIKNAKRKKHFAEHEIEEATLDPLDNYLVAEDPFLGPGKNQKLTLFKEIRNVKPDTMKLVVGWKGKEFYRETWTRFMEDSFPIVNDQEVMDVFLVVNMRPTRPNRCYKFLAQHALRCDPDYVPHDVIRIVEPSWVGSNNEYRISLAKKGGGCPIMNLHSEYTNSFEQFIDRVIWENFYKPIVYIGTDSAEEEEILLEVSLVFKVKEFAPDAPLFTGPAY
notes: polyhedrin of AcMNPV, left in the nucleocapsid sample after alkaline lysis of occlusion bodies; also called polyhedrins; source: present in the buffer of the AcMNPV nucleocapsid preparation (nucleocapsids not isolated by gradient centrifugation)

Key:
[1] = biological target: the molecule itself; experiment: cryo-EM structure; helical cylinder of native AcMNPV ODV nucleocapsids; helical reconstruction 3.9 Å, local refinement 3.2 Å; VP39 model built de novo; partners co-purified as the native nucleocapsid
AC104 (VP80) = biological target: B3; experiment: cryo-EM structure; head and base of native AcMNPV ODV nucleocapsids; local refinement 4.3 Å (elements common to both ends), 4.8 Å (base with AC98), 4.9 Å (plug); AlphaFold2 models docked into density and refined; partners co-purified as the native nucleocapsid; settings: both partners purified
[2] = biological target: the molecule itself; experiment: as above
[3] = biological target: the molecule itself; experiment: cross-linking; purified AcMNPV nucleocapsid, 2 mM BS3 on ice 2 h, stopped with 50 mM Tris-HCl pH 7.5; mass spectrometry, pLink2

## B1
[1]
  binding result: binds
AC104 (VP80)
  binding result: binds

## B2
[2]
  binding result: binds

## B3
[2]
  binding result: binds

## B4
[3]
  binding result: binds
